Positions count from the first letter of the chain named.

In experiment [1] the target is SARS-COV-2 Wuhan WT Spike_del18 on VSV-delG pseudotyped particles (SARS-COV-2, UniProt P0DTC2 14-1255). Kind of experiment: cell-based or functional assay.
Experiment [2] addresses T1, SARS-COV-2 RBD displayed on the surface of Saccharomyces cerevisiae cells (SARS-COV-2, UniProt P0DTC2 331-531). Kind of experiment: yeast cell ELISA (FIG. 27).
The target of experiment [3] is monomeric human Fc-fused SARS-COV-2_RBD-SD1 (SARS-COV-2, UniProt P0DTC2 319-591).
For experiment [4], the target named is T1, SARS-COV-2 RBD displayed on the surface …. The experiment can be described thus: flow cytometry, yeast-displayed RBD. (In general: Flow cytometry measures light scatter and fluorescence of single cells or particles in a stream.)

B1: VHH72_h1_S56A (VHH)
VHH: EVQLVESGGGLVQPGGSLRLSCAASGRTFSEYAMGWFRQAPGKEREFVATISWSGGATYYTDSVKGRFTISRDNAKNTVYLQMNSLRPEDTAVYYCAAAGLGTVVSEWDYDYDYWGQGTLVTVSS
B1: the “IC50 Mean VSV-dG-spike SARS-COV-2” value in experiment [1] was determined as 1.14 µg/mL.

B2: KiH19 = VHH117/VHH83-10GS-KiH (bispecific antibody, V domains shown)
V domain 1: DVQLQESGGGLVQPGGSLRLSCAASGKAVSISDMGWYRQPPGKQRELVATITKTGSTNYADSAQGRFTISRDNTKSAVYLEMKSLKPEDTAVYYCNAWLPYGMGPDYYGMELWGKGTQVTVSS
V domain 2: DVQLQESGGGLVQPGDSLRLSCVLSGGVFTSYAMGWFRQAPGKEREFLAAITFNSDATYYADSVKGRFTISRDNAKNTAYLQMNSLKPEDTAVYSCAAGGNHYNPQYYHDYDKYDHWGQGTQVTVSS
Regarding B2, the binding result in experiment [2] is “binds”.

B3: VHH3.117 (VHH)
VHH: B2 V domain 1 with D1Q
The Kd is the free concentration of one partner at which half of the binding sites on the other are occupied at equilibrium, for simple one-to-one binding. Lower therefore signals higher affinity. As for B3, the affinity in experiment [3], expressed as Kd, was 0.445 nM.

B4: VHH3.89 (VHH)
VHH: QVQLQESGGGLVQPGGSLRLSCAASGFTLDYYAIGWFREVPGKEREGLSRIDSSDGSTYYADSVKGRFTISRDNTKNIVYLQMNNLKPEDTAVYYCATDPIIQGRNWYWTGWGQGTQVTVSS
For B4, the binding result in experiment [4] is “binds”.

The values above are taken from patent US20240228596A1 (VIB VZW, published 2024).
